The values that follow come from patent publication US20180009871A1 (INTARCIA THERAPEUTICS, published 2018).

The target in experiment [1] is human glucagon receptor (GCGR) (human, UniProt P47871 26-477). The experiment can be described thus: cell-based or functional assay.
Experiment [2] addresses human GLP-1 receptor (GLP-1R) (human, UniProt P43220 24-463). The experiment can be described thus: cell-based or functional assay.

Where no end group is shown, it is not given here. [ ]: non-standard residue; d: D form. Aib = CC(C)(N)C(=O)O Bounds are passed on as bounds.

Chain of human GLP-1 receptor (GLP-1R) (P43220 24-463): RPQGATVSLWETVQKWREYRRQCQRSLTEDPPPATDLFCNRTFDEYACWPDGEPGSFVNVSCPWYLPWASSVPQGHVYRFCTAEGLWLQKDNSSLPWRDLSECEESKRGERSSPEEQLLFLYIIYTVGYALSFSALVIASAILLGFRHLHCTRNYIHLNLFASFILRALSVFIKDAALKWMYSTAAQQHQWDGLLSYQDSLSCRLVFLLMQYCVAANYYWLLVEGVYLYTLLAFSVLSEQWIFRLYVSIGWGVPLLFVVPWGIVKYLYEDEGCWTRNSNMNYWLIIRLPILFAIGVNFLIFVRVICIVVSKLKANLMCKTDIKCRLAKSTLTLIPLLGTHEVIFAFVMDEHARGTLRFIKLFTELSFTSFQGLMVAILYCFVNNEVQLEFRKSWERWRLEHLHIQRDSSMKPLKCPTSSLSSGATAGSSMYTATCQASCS

Take YSHGTFTSDYSKYLDSARAQEFVKWLEDEPKSKEPPPS-OH [Compound A69]: the “hGCGR pEC50 (cAMP)” value in experiment [1] is 11.8 pEC50. Further, the “hGLP1 pEC50 (cAMP)” value in experiment [2] was < 9 pEC50.

B1: Compound A75 (peptide)
peptide: WSHGTFTSDYSKYLD[Aib]KRAQEFV[Aib]WLEDEPSSGAPPPS-OH
modifications: N-terminus assumed
SMILES: CC(C)C[C@H](NC(=O)[C@H](Cc1ccc(O)cc1)NC(=O)[C@H](CCCCN)NC(=O)[C@H](CO)NC(=O)[C@H](Cc1ccc(O)cc1)NC(=O)[C@H](CC(=O)O)NC(=O)[C@H](CO)NC(=O)[C@@H](NC(=O)[C@H](Cc1ccccc1)NC(=O)[C@@H](NC(=O)CNC(=O)[C@H](Cc1c[nH]cn1)NC(=O)[C@H](CO)NC(=O)[C@@H](N)Cc1c[nH]c2ccccc12)[C@@H](C)O)[C@@H](C)O)C(=O)N[C@@H](CC(=O)O)C(=O)NC(C)(C)C(=O)N[C@@H](CCCCN)C(=O)N[C@@H](CCCNC(=N)N)C(=O)N[C@@H](C)C(=O)N[C@@H](CCC(N)=O)C(=O)N[C@@H](CCC(=O)O)C(=O)N[C@@H](Cc1ccccc1)C(=O)N[C@H](C(=O)NC(C)(C)C(=O)N[C@@H](Cc1c[nH]c2ccccc12)C(=O)N[C@@H](CC(C)C)C(=O)N[C@@H](CCC(=O)O)C(=O)N[C@@H](CC(=O)O)C(=O)N[C@@H](CCC(=O)O)C(=O)N1CCC[C@H]1C(=O)N[C@@H](CO)C(=O)N[C@@H](CO)C(=O)NCC(=O)N[C@@H](C)C(=O)N1CCC[C@H]1C(=O)N1CCC[C@H]1C(=O)N1CCC[C@H]1C(=O)N[C@@H](CO)C(=O)O)C(C)C
On to B1, for which the “hGCGR pEC50 (cAMP)” value in experiment [1] stood at 11.3 pEC50. For the same molecule, the “hGLP1 pEC50 (cAMP)” value in experiment [2] was < 9 pEC50.

With YSHGTFTSDYSKYLDSARAQEFVKWLEDEPKSKSPPPS-OH [Compound A70], the “hGCGR pEC50 (cAMP)” value in experiment [1] is 12 pEC50. In addition, the “hGLP1 pEC50 (cAMP)” value in experiment [2] is < 9 pEC50.

YSHGTFTSDYSKYLDSARAQEFVKWLEDEPKSKSPPPS-NH2 [Compound A73]: in experiment [1], the “hGCGR pEC50 (cAMP)” value came to 11.7 pEC50. The “hGLP1 pEC50 (cAMP)” value in experiment [2] is < 9 pEC50.

B2: Compound A68 (peptide)
peptide: YSHGTFTSDYSKYLD[Aib]ARAQEFV[Aib]WLEDEPKSKEPPPS-NH2
modifications: N-terminus assumed
SMILES: CC(C)C[C@H](NC(=O)[C@H](Cc1ccc(O)cc1)NC(=O)[C@H](CCCCN)NC(=O)[C@H](CO)NC(=O)[C@H](Cc1ccc(O)cc1)NC(=O)[C@H](CC(=O)O)NC(=O)[C@H](CO)NC(=O)[C@@H](NC(=O)[C@H](Cc1ccccc1)NC(=O)[C@@H](NC(=O)CNC(=O)[C@H](Cc1c[nH]cn1)NC(=O)[C@H](CO)NC(=O)[C@@H](N)Cc1ccc(O)cc1)[C@@H](C)O)[C@@H](C)O)C(=O)N[C@@H](CC(=O)O)C(=O)NC(C)(C)C(=O)N[C@@H](C)C(=O)N[C@@H](CCCNC(=N)N)C(=O)N[C@@H](C)C(=O)N[C@@H](CCC(N)=O)C(=O)N[C@@H](CCC(=O)O)C(=O)N[C@@H](Cc1ccccc1)C(=O)N[C@H](C(=O)NC(C)(C)C(=O)N[C@@H](Cc1c[nH]c2ccccc12)C(=O)N[C@@H](CC(C)C)C(=O)N[C@@H](CCC(=O)O)C(=O)N[C@@H](CC(=O)O)C(=O)N[C@@H](CCC(=O)O)C(=O)N1CCC[C@H]1C(=O)N[C@@H](CCCCN)C(=O)N[C@@H](CO)C(=O)N[C@@H](CCCCN)C(=O)N[C@@H](CCC(=O)O)C(=O)N1CCC[C@H]1C(=O)N1CCC[C@H]1C(=O)N1CCC[C@H]1C(=O)N[C@@H](CO)C(N)=O)C(C)C
Consider B2, for which the “hGCGR pEC50 (cAMP)” value in experiment [1] was 11.3 pEC50. The “hGLP1 pEC50 (cAMP)” value in experiment [2] was < 9 pEC50.

B3: Compound A77 (peptide)
peptide: YSHGTFTSDYSKYLD[Aib]KTAQEFV[Aib]WLEDEPSSGAPPPS-OH
modifications: N-terminus assumed
SMILES: CC(C)C[C@H](NC(=O)[C@H](Cc1ccc(O)cc1)NC(=O)[C@H](CCCCN)NC(=O)[C@H](CO)NC(=O)[C@H](Cc1ccc(O)cc1)NC(=O)[C@H](CC(=O)O)NC(=O)[C@H](CO)NC(=O)[C@@H](NC(=O)[C@H](Cc1ccccc1)NC(=O)[C@@H](NC(=O)CNC(=O)[C@H](Cc1c[nH]cn1)NC(=O)[C@H](CO)NC(=O)[C@@H](N)Cc1ccc(O)cc1)[C@@H](C)O)[C@@H](C)O)C(=O)N[C@@H](CC(=O)O)C(=O)NC(C)(C)C(=O)N[C@@H](CCCCN)C(=O)N[C@H](C(=O)N[C@@H](C)C(=O)N[C@@H](CCC(N)=O)C(=O)N[C@@H](CCC(=O)O)C(=O)N[C@@H](Cc1ccccc1)C(=O)N[C@H](C(=O)NC(C)(C)C(=O)N[C@@H](Cc1c[nH]c2ccccc12)C(=O)N[C@@H](CC(C)C)C(=O)N[C@@H](CCC(=O)O)C(=O)N[C@@H](CC(=O)O)C(=O)N[C@@H](CCC(=O)O)C(=O)N1CCC[C@H]1C(=O)N[C@@H](CO)C(=O)N[C@@H](CO)C(=O)NCC(=O)N[C@@H](C)C(=O)N1CCC[C@H]1C(=O)N1CCC[C@H]1C(=O)N1CCC[C@H]1C(=O)N[C@@H](CO)C(=O)O)C(C)C)[C@@H](C)O
B3: the “hGCGR pEC50 (cAMP)” value in experiment [1] stood at 11.5 pEC50. Moreover, the “hGLP1 pEC50 (cAMP)” value in experiment [2] is < 9 pEC50.

As for YSHGTFTSDYSKYLDSARAQEFVKWLEDEPKSKEPPPS-NH2 [Compound A72], in experiment [1], the “hGCGR pEC50 (cAMP)” value is 12.1 pEC50. In experiment [2], the “hGLP1 pEC50 (cAMP)” value is < 9 pEC50.

B4: Compound A76 (peptide)
peptide: YSHGTFTSDYSKYLD[Aib]KAAQEFV[Aib]WLEDEPSSGAPPPS-OH
modifications: N-terminus assumed
SMILES: CC(C)C[C@H](NC(=O)[C@H](Cc1ccc(O)cc1)NC(=O)[C@H](CCCCN)NC(=O)[C@H](CO)NC(=O)[C@H](Cc1ccc(O)cc1)NC(=O)[C@H](CC(=O)O)NC(=O)[C@H](CO)NC(=O)[C@@H](NC(=O)[C@H](Cc1ccccc1)NC(=O)[C@@H](NC(=O)CNC(=O)[C@H](Cc1c[nH]cn1)NC(=O)[C@H](CO)NC(=O)[C@@H](N)Cc1ccc(O)cc1)[C@@H](C)O)[C@@H](C)O)C(=O)N[C@@H](CC(=O)O)C(=O)NC(C)(C)C(=O)N[C@@H](CCCCN)C(=O)N[C@@H](C)C(=O)N[C@@H](C)C(=O)N[C@@H](CCC(N)=O)C(=O)N[C@@H](CCC(=O)O)C(=O)N[C@@H](Cc1ccccc1)C(=O)N[C@H](C(=O)NC(C)(C)C(=O)N[C@@H](Cc1c[nH]c2ccccc12)C(=O)N[C@@H](CC(C)C)C(=O)N[C@@H](CCC(=O)O)C(=O)N[C@@H](CC(=O)O)C(=O)N[C@@H](CCC(=O)O)C(=O)N1CCC[C@H]1C(=O)N[C@@H](CO)C(=O)N[C@@H](CO)C(=O)NCC(=O)N[C@@H](C)C(=O)N1CCC[C@H]1C(=O)N1CCC[C@H]1C(=O)N1CCC[C@H]1C(=O)N[C@@H](CO)C(=O)O)C(C)C
As to B4, in experiment [1], the “hGCGR pEC50 (cAMP)” value amounted to 12.7 pEC50. Besides, the “hGLP1 pEC50 (cAMP)” value in experiment [2] was < 9 pEC50.

As for YSHGTFTSDYSKYLDSARAQEFVKWLEDEPKSKAPPPS-NH2 [Compound A74], the “hGCGR pEC50 (cAMP)” value in experiment [1] is 11.6 pEC50. Besides, the “hGLP1 pEC50 (cAMP)” value in experiment [2] was < 9 pEC50.

B5: Compound A67 (peptide)
peptide: YSHGTFTSDYSKYLD[Aib]ARAQEFV[Aib]WLEDEPKSKSPPPS-NH2
modifications: N-terminus assumed
SMILES: CC(C)C[C@H](NC(=O)[C@H](Cc1ccc(O)cc1)NC(=O)[C@H](CCCCN)NC(=O)[C@H](CO)NC(=O)[C@H](Cc1ccc(O)cc1)NC(=O)[C@H](CC(=O)O)NC(=O)[C@H](CO)NC(=O)[C@@H](NC(=O)[C@H](Cc1ccccc1)NC(=O)[C@@H](NC(=O)CNC(=O)[C@H](Cc1c[nH]cn1)NC(=O)[C@H](CO)NC(=O)[C@@H](N)Cc1ccc(O)cc1)[C@@H](C)O)[C@@H](C)O)C(=O)N[C@@H](CC(=O)O)C(=O)NC(C)(C)C(=O)N[C@@H](C)C(=O)N[C@@H](CCCNC(=N)N)C(=O)N[C@@H](C)C(=O)N[C@@H](CCC(N)=O)C(=O)N[C@@H](CCC(=O)O)C(=O)N[C@@H](Cc1ccccc1)C(=O)N[C@H](C(=O)NC(C)(C)C(=O)N[C@@H](Cc1c[nH]c2ccccc12)C(=O)N[C@@H](CC(C)C)C(=O)N[C@@H](CCC(=O)O)C(=O)N[C@@H](CC(=O)O)C(=O)N[C@@H](CCC(=O)O)C(=O)N1CCC[C@H]1C(=O)N[C@@H](CCCCN)C(=O)N[C@@H](CO)C(=O)N[C@@H](CCCCN)C(=O)N[C@@H](CO)C(=O)N1CCC[C@H]1C(=O)N1CCC[C@H]1C(=O)N1CCC[C@H]1C(=O)N[C@@H](CO)C(N)=O)C(C)C
Regarding B5, in experiment [1], the “hGCGR pEC50 (cAMP)” value stood at 10.9 pEC50. Moreover, the “hGLP1 pEC50 (cAMP)” value in experiment [2] is < 9 pEC50.

Consider YSHGTFTSDYSKYLDSARAQEFVKWLEDEPKSKAPPPS-OH [Compound A71], for which, in experiment [1], the “hGCGR pEC50 (cAMP)” value came out at 11.7 pEC50. For the same molecule, in experiment [2], the “hGLP1 pEC50 (cAMP)” value is < 9 pEC50.

B6: Compound A66 (peptide)
peptide: YSHGTFTSDYSKYLD[Aib]KRAQEFV[Aib]WLEDEPKSKSPPPS-NH2
modifications: N-terminus assumed
SMILES: CC(C)C[C@H](NC(=O)[C@H](Cc1ccc(O)cc1)NC(=O)[C@H](CCCCN)NC(=O)[C@H](CO)NC(=O)[C@H](Cc1ccc(O)cc1)NC(=O)[C@H](CC(=O)O)NC(=O)[C@H](CO)NC(=O)[C@@H](NC(=O)[C@H](Cc1ccccc1)NC(=O)[C@@H](NC(=O)CNC(=O)[C@H](Cc1c[nH]cn1)NC(=O)[C@H](CO)NC(=O)[C@@H](N)Cc1ccc(O)cc1)[C@@H](C)O)[C@@H](C)O)C(=O)N[C@@H](CC(=O)O)C(=O)NC(C)(C)C(=O)N[C@@H](CCCCN)C(=O)N[C@@H](CCCNC(=N)N)C(=O)N[C@@H](C)C(=O)N[C@@H](CCC(N)=O)C(=O)N[C@@H](CCC(=O)O)C(=O)N[C@@H](Cc1ccccc1)C(=O)N[C@H](C(=O)NC(C)(C)C(=O)N[C@@H](Cc1c[nH]c2ccccc12)C(=O)N[C@@H](CC(C)C)C(=O)N[C@@H](CCC(=O)O)C(=O)N[C@@H](CC(=O)O)C(=O)N[C@@H](CCC(=O)O)C(=O)N1CCC[C@H]1C(=O)N[C@@H](CCCCN)C(=O)N[C@@H](CO)C(=O)N[C@@H](CCCCN)C(=O)N[C@@H](CO)C(=O)N1CCC[C@H]1C(=O)N1CCC[C@H]1C(=O)N1CCC[C@H]1C(=O)N[C@@H](CO)C(N)=O)C(C)C
For B6, in experiment [1], the “hGCGR pEC50 (cAMP)” value came to 12.5 pEC50. Also, in experiment [2], the “hGLP1 pEC50 (cAMP)” value is < 9 pEC50.
